Assay results from ChEMBL document CHEMBL1128147, “Mechanistic support for the stepwise process for inactivation of class A -lactamases by clavulanate” (Bioorg Med Chem Lett, 1995).

Substrate: O=C(O)[C@H]1C(CCO)O[C@@H]2CC(=O)N21
Description: Km for inactivation of TEM-1 beta-lactamase

B1: Beta-lactamase (Enterobacter cloacae), P05364 (protein)
chain: MMRKSLCCALLLGISCSALATPVSEKQLAEVVANTITPLMKAQSVPGMAVAVIYQGKPHYYTFGKADIAANKPVTPQTLFELGSISKTFTGVLGGDAIARGEISLDDAVTRYWPQLTGKQWQGIRMLDLATYTAGGLPLQVPDEVTDNASLLRFYQNWQPQWKPGTTRLYANASIGLFGALAVKPSGMPYEQAMTTRVLKPLKLDHTWINVPKAEEAHYAWGYRDGKAVRVSPGMLDAQAYGVKTNVQDMANWVMANMAPENVADASLKQGIALAQSRYWRIGSMYQGLGWEMLNWPVEANTVVEGSDSKVALAPLPVAEVNPPAPPVKASWVHKTGSTGGFGSYVAFIPEKQIGIVMLANTSYPNPARVEAAYHILEALQ
Km: 2.2 µM
